Assay: label from the status in PepcDB records
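Further: failed if final PepcDB status was selected cloned or expressed and not failed if soluble or beyond.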

| Sequence | protein production |
| --- | --- |
| MTQPLRQYREKRDFRATAEPAGAARRPRAAARASEGLSFVIQRHQARRLHYDFRLEIDGVLVSWAVPKGPSRDPSVKRLAVHVEDHPLEYGGFSGDIPKGQYGAGHVDIWDSGVWIPRGDPRQGLRRGKLHFALRGRRLAGDWVLVRMSGEQDQWLLRKEDDEAAVPGDDAERAPATPPPAPEHAPAATPRGRRAAMPHTLAPQLATLVDSPPHGPGWSYEVKYDGYRILAACSAGGVRLVSRGNEDWQARMAPLARALGALKLGRGWLDGEVVVLDERGVADFQLLQNALDGQAEGLVFVAFDLPFWNGEDLRALPLQARQERLEDLLREVPEDAPLMLTQRLPVADDTEGKAAWNEACRLSLEGLICKRLDAPYRSGRSQGWLKLKCRPRQEFVIGGYTEPAGARRHLGALLVGLRQGRQLRYAGRVGTGFGAATLRTLGQRLAALRQDAKPFSGDVPRGRGDAAIHWVSPELVAEVNYAGITRDGLLRQASFAGLRADKPASEVRGEVAARPPAAKAATPSRRAGDGRAEVAGVRISHPDRLAYREPDYTKLQLAEYYAAIGPHILPHLRQRRVALLRCPDGAGTTCFFQKHLSQSLPAGVRRDGGHLVIESLPGLIALVQYGAIEFHTWGADTRHPDTPDRITLDLDPGPGVAWPAIVEGAQMARLLMQEVGLEPFLKTTGGKGLHLVAPLRPTQPWDTVKDFARALARQLAVALPDRFTANMAKARRERRIFVDYLRNGNGATAVAAFSARARDGAPVSMPLSWDALDAGDDLRGARWNIANALEQARRKPDPWADYAASRRTLGSRMQARLPRD | failed |
| MMRAWIQLVIAIGVEIVGTSLLKLSSGFKYPLIGIVGMLLYGLAIFSFSRALSKIPLSVGYAIWAGVGTAATGLIGIWAFGEILTGLKTLGFMAIITGVILLNMPAKTTKSTTATPRSARWRTRFNR | failed |
| MKKIAIFGSAFNPPSLGHKSVIESLSHFDLVLLEPSIAHAWGKNMLDYPIRCKLVDAFIKDMGLSNVQRSDLEQALYQPGQSVTTYALLEKIQEIYPTADITFVIGPDNFFKFAKFYKAEEITERWTVMACPEKVKIRSTDIRNALIEGKDISTYTTPTVSELLLNEGLYRETLSGK | not failed |
| MRDRGDKPAEAGLGLTQTRQEDPAAMIDLYYAPTPNGWKISIMLEECGLPYKVVPMQLGRGDQHQPGFLKLSPNGRMPAIVDHAPIGGGAPLSVFESGAILIYLAEKSGQLMPTETRARFEVMQWLMWQMAGLGPMLGQNGHFLLYAPEKIPYAIDRYSREAKRLYGVLDQRLADRACIAGDYSIADIACFPWIMTHKAQGLTLDDYPNIKRWYAALRARPKLQAGLALGKEDKKPMDEQARKLLFGVDKPAHADAQAQSAQQQ | not failed |
| AWGLAATGKEFLWVMRPDSVAGEEAVIPKEFLAETADRRMLTSWCPQEKVLSHPAVGGFLTHCGWNSTLESLSCGVPMVGIEIGGDVKRGEVEAVVRELMDGEKGKKMREKAVEWRRLAEKATKLPCGSSVINFETIVNKVLLGKIPNT | failed |
| MIKILETESSLGWGGQENRTARLINHLDPTRFRVYVATPKDSELYKRRQEIRAEFFPVEMRKSYSLKAIWQLYKIIKKERIDIVSTHSGKDAWLGVIAARLAGVKAIRTRHLQTPISSPLSYNLHDKVVCVSDFVKEDLAKRGVQKGRLCTIHTGVDVSKYAPHREGILRRELGLREEEILVGIVAVLRGAKGHKLLLEAFAKLSSSTARLVIIGDGPQRENIALIVEQLNLQERVVMLGHREDVAKIMPDLDIFVLSSSMEALGTAILEASACGVAVLGSNVGGIPECVRENGQLFEAGDSDSLVKNLQALINDTSKRKERGAKGRVLVEEEFSVEAMVRKTEGLYREIITPQKILIVSNTALGDTILSTPLFRETRLALPKAHITALLNPVNAMLFETNPYLDKIELYGGRWRGFLGAWWKLWRRGFDVALLGHSNDPQITPLCLLLGISKIIKIPNHKNPWQRFHHNPPASPIEDQYAVLTRLLTLKYIGIESSNTRLELFLKEEWTTEAKEILRPFGQKKLIGIQMGASNRSRQWFVERWIELAKRIIERDEEVVIVFVGSKNELEEISLVAQALPQDRVFISAGRLSLGAAAALIGELGLLFTPDTGPLHIAVALRVKTISLFAVANPKNSLPDYDQSLHRYIKVDRCCEPCVGKRCAYQKCMEAIGVDEVYEEYKKLQE | failed |
| MAEVERPQLYLVTPPEIDLEIFPDRLAAVLDSTEVACLRLALAGKDEDRIARTGDALREVAHARDVALVIENHVLMVERLGLDGVHLTDGARLVRKLRKDLGPDAILGAFCGRTRHEGINAAEAGADYVAFGPVGTTALGDGSLAEAELFGWWSEMIEVPVVAEGALTPEKVAELAPLTDFFAVGEEIWREEDAAAALRRLLAPLGLEHHHHHH | not failed |
| MAVTRRLLMAVVGLFSLLVYFTAAYVGYLLLLPVWDSRPSPLMAALFVLGTAIALGVVNYWAATAQLKRSLNAVELPRARAPEAYHRLDALVDQMNVETPTLLLAELPVPNAFAIGGGTGTIVVDRRLFRLLSAAEFEGLLAHELAHLETRDALVQTVAYSFVQTLVGLIGLALFPIVVLTGGIARSLALLRGDPSSWSRSWLGRAQRYSLQVVAGLGFAVTLLLLGYSRRRELAADDRAVEITGNPVGLARALAKIEQASTPDPGLLRQVYVHSEADNELSRLLSTHPPIDERMQRLQDRAQYGNFTKSSERPSSRR | failed |
| AIAAVKAQVLYDFTAEPGNNELTVHEGETLTITNQNVGGGWVEAQNSRGNVGLVPVDYVEVNSASAQAPATQYIDARNQGNNNSTANTQGVNGNEAWTATTWSNSYPADNWNYTEQEPAGNNGSVYSFDEEWDDDSDDGKSTGGYGGSQAEDGGTMQRSGAHSTMKLSLNKFPGFSKTPNPEVYLLTKHITKGNDRLSVYPGEVGPVWLYPQTQLDCVVADPKKGSKMYGLKSYIEYQITPNTTNRPVNHRYKHFDWLYERLVEKFACALPVPGLPDKQVTGRFEEEFIKMRMERLQGWMSRMCRHPVISNSEVFQLFLNYRDEKEWKLGKRKAEKDETVGVKIFSTIDPELPELDPAQVEQKYEVYNQFTRSMDNSVKELLAVGNLHWKRCTGPLQKEYRQIGKAFQNMSSVFNTSGYPRESTLTEALTATGKTYEEIAEVIAAQPRKDLHFLLETNNEYKGLLGCFPDTIGVHKAAIDKVKEADHLVMTNKISQQDKHTMEKNLSTMSYALQAEMNHFHSNRIYDYNRLMQFYLEEQVKFYETIAEKLKKALGQYTTI | failed |
| MKNSEESSSSSEDTNNATDTNTSESQDISVNGPEKVGDVYEIDGGTAKVMAISNKETTVKTGPIQFTVKKVIAAVANEQLPFIDVQIESENTSDEVVRFRPSLAQLATSTGVQIDEPSLLESDRLLDEYVGKVNDSGSIIYVFDNEEDIKDLESIRLRISSPFNEDLKNLGDKLDLKINLEHLEHHHHHH | not failed |
| MSGPGSDPVFAALTRPQMVAGVTYSYAVFNLIVTMEAFLISKSFWALLIAPLVHAVGYLGCLNEPRFFDLWITKVSRCPNIRNRGFWQANSYRP | failed |
| MDAVVVLCYLLLALPTIIPSVVDGKWLVVAILLLIAIALFFRRPFPLQVVLAVSLLEIAATILNPWGSNVSAGLWFALYAVASLRKRALALVVFAVASLPLSLLYLFMWTSPSEMDNLQDVPENFHLINNIATAVTIMLSNLLATGIGISVRQRREHEAEIAAWAARTTQLGKVTERNRIAREMHDVVAHSLTVMISLSDGAAVVVKKDPERAGDVLGELSRTGRAALADMRRVLGVLRDDSGRPAPLTPLESGQNLAKLLDGFRTAGLPLHYAHTGPGLPADPAFELTVYRIVQESLTNVLRYGRSLSRVDVQVARDGDLVTIDVLDDGRGTREGGSESVGSLGTGQGIAGMNERAGIYAGIVTAGPGKRGGWAVHAELRWNGEKGES | failed |
| SRKRLSAPELRLSLTKGPGNDGASPTQSAPSSPDGSSDLEIDELETPSDSEQLDSGHEFEWEDELPRAEGLGTSETAERLGRGCMWDVTGEDGHHWRVFRMGPREQRVDMTVIEPYKKVLSHGGYHGDGLNAVILFASCYLPRSSIPNYTYVMEHLFRYMVGTLELLVAENYLLVHLSGGTSRAQVPPLSWIRQCYRTLDRRLRKNLRALVVVHATWYVKAFLALLRPFISSKFTRKIRFLDSLGELAQLISLDQVHIPEAVRQLDRDLHGSGGT | failed |
| MIYFIRKKKWLKQLEKGEAMKYAILIGDGMADYPIEKLGNRTILQAARTPAMDSIAARGRAGLAKTVPDSFPPGSDVANMSILGYDPATYYSGRAPLEAASMGVALAADDVAFRCNLITTEHGMIKDYSAGHISSDEAEILIDTLDYELSTENIRFYPGISYRHLIVAGNNLGAETECTPPHDITGEKIDKYLPRGKDGEFFSELIEASKVVLELHPVNLKRVEEGKNPANSIWVWGQGYAPKFTAFMKLYGKKGAVISAVDLLKGIGIYAGLDVIEVHGATGYLDTNYEGKVRAAIEALKTRDLVFVHVEAPDEAGHEGSIEKKLKAVEDFDSRIVAPILEYAENSDEPFTILVLPDHPTPISVKTHTRDPIPFAIYRTDKPETDNVEAFDEESVKNGSMGLVKASDLIGILIKSLEHHHHHH | not failed |
| MSGSLEIPGLDDGLLPVETGYGLFQGTAKKRVVICNDNDKFRHSGPLPRALCGSFAAIGLLPLPVVETRPAPPPKVAPITPALQGKACGQAVFEGLRNKNAVETVDNLPALRQTARTGKRWKALESLMQETPAIIYKIVPETLWTAARAEGMFEGAAIDLTDGFIHFSTAKQVAETAARHFSGQVDLLLIAVDGAALGDKLVYEPSRGGDLFPHLYAPLPFSAVLWETPLSLDHDGQHQFPEILLEHHHHHH | failed |
| MAEEKKKKLSIIVFSGTIDKLMPVGILTSGAAASGYEVNLFFTFWGLQAITKRSLNSQQPPQIDKNYEQMGPIMMQKMQEMKYPMWHQLVQQAKEIGEVKVFACSTTMEFFGIKREDLAEFVDDVVGVATFLDRAEGGTTLFI | not failed |
| MTTTIEVGMLGLGTVGSGVVERLTRSAAKIEQTQGIRLHLAAVAVNHLNAPRTVQLPIGTRLTDSLTNVVCDRKIQLVIEVMGTVATAKKAIVAALNQGKAVVTANKDLIATAGPELAALAKKQGCDLFYEASVAGGIPILRTLTDSYVTDNVQAVSGIINGTANYMLSAMATGQSYEQALATAQATGYAEADPTNDVAGIDAAYKLMILSRFAFGQELSLPQIAPTGITHLSASVCRLAAENGWQIKLLAQIQRHGSGLYCRVAPVAVPVDQPLSQINGVQNAVAVQSEAIGTSLYTGPGAGSTATANSVLNDVLVAAKHLINGYRMIRNQKRSVSLTVTRFDQLPQTYLGIGPVAPEAVKYYANEADFSVKTIADDCYQITGLSAVKRKKLRANLPLTLIPIAGTTDWKQVTENSITSPINVAILEHHHHHH | not failed |
| YLGPQGTFTHQAAVNAAQELARFEPQGFDLMPMDDVPQILDAAQHGDGWGIVAWENNVEGYVVPNLDALIDAKDLVGFARVGVNVEFDAYVAQGADPAEARIATAHPHGLAQCKRFIAEHRLSTQPATSNAAACRDLIPGEIAFGPAICGELYDITRIGTAIQDYQGAATDFLVLSPRAE | failed |
| MTAYWIAHVTIHDMQQYQEYMKLAPAAFQKYGAKFLARGGESVCVEGQAYQRHVIIEFPDLATAQQCYDSEEYKQARLAREGCADVMISFVEG | failed |
| MTSRFMLIFAAISGFIFVALGAFGAHVLSKTMGGVEMGWIQTGLEYQAFHTLAILGLAVAMQRRISIWFYWSSVFLALGTVLFSGSLYCLALSHLRLWAFVTPVGGVSFLAGWALMLVGAIRLKRKGVSHE | failed |
| MKILWLIILVNLFLSCGNESKEKSNLGLRLRELEISGGGSESKIEVYKEFIEKEDKNILKIVNSIDKKARFFNLIGLEFFKLGQYGPAIEYFAKNLEINPNNYLSHFYIGVASYNLAKNLRVKDEVEKYIILAENSFLKSLSIRDDFKDSLFAISNMYVYDLDKQLEAKNYLNKLGDMGEDYFEFLMLRGANYYSLGDLGNAILFYDKASKKASTEEQKEGVSRIMSNLK | failed |
| MAKGVRVGLKNIHFAKILTEDENGVTYDTPVKIGNAIEASITPNTNSETLYADDGPSEVESSLGETEVEIGIDQLSTTAQALLLGHTILSDGVLEKKETDIAPYGALLFESATTGGKSKLYALYKGRFQPQEESFATKGLEHHHHHH | not failed |
